Legend:
HeLa Kyoto [1] = experiment: solubility in G1/S (NP-40 vs SDS abundance) (log2 ratio); higher = more soluble; details: cell cycle stage: G1/S
HeLa Kyoto [2] = experiment: thermal stability score vs G1/S (z-score of summed log2 fold changes over temperatures); higher = more thermally stable than in G1/S
HeLa Kyoto [3] = experiment: solubility change mitosis vs G1/S (difference of NP-40 vs SDS log2 ratios) (log2 ratio difference); higher = more soluble in mitosis
HeLa Kyoto [4] = experiment: melting temperature (median over replicates), in situ; higher = more thermally stable
[5] = cell cycle stage: early G1 (4.5 h after nocodazole release)
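Wherever melting temperature (median over replicates), in situ is given: HeLa Kyoto cells synchronized by double thymidine or nocodazole block, proteins quantified by TMT10plex mass spectrometry, three independent biological replicates.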
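Wherever solubility change mitosis vs G1/S (difference of NP-40 vs SDS log2 ratios) is given: synchronized HeLa Kyoto cells (double thymidine block for G1/S, nocodazole release for mitosis), protein amounts in NP-40 versus SDS lysates quantified by mass spectrometry, three biological replicates.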
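Wherever solubility in G1/S (NP-40 vs SDS abundance) is given: HeLa Kyoto cells arrested at G1/S by double thymidine block, proteins quantified by TMT10plex mass spectrometry in mild NP-40 versus SDS extracts, three biological replicates.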
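Wherever thermal stability score vs G1/S (z-score of summed log2 fold changes over temperatures) is given: synchronized HeLa Kyoto cells, proteins quantified by TMT10plex mass spectrometry, three biological replicates, mitosis taken 0.5 h after nocodazole release, G1/S directly after double thymidine block.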

Sequence of CTDSPL2 (chain, as listed by the source): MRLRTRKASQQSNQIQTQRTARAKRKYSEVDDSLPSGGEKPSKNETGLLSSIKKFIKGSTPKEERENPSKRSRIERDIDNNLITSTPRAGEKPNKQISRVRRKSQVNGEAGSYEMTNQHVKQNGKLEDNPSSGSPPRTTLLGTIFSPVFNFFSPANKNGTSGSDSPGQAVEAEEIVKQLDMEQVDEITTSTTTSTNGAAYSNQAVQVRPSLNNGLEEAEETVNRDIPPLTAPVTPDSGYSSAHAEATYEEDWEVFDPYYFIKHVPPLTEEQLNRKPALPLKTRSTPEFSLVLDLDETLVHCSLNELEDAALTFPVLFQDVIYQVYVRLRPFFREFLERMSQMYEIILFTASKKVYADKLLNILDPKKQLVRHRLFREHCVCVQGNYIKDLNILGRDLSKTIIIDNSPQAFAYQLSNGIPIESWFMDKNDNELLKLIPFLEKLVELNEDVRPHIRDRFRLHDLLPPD

Row | Substance | solubility in G1/S (log2) (HeLa Kyoto [1]) | thermal stability score (HeLa Kyoto [2]; [5]) | thermal stability score (HeLa Kyoto [2]; cell cycle stage: mitosis) | solubility change mitosis (log2) (HeLa Kyoto [3]) | melting temperature (HeLa Kyoto [4]; cell cycle stage: G1/S) [°C] | melting temperature (HeLa Kyoto [4]; cell cycle stage: mitosis) [°C]
1 | CTDSPL2 | -0.599 | 2.66 | 4.58 | 0.46 | 48.4 | 48.7
2 | MLEEAGEVLENMLKASCLPLGFIVFLPAVLLLVAPPLPAADAAHEFTVYRMQQYDLQGQPYGTRNAVLNTEARTMAAEVLSRRCVLMRLLDFSYEQYQKALRQSAGAVVIILPRAMAAVPQDVVRQFMEIEPEMLAMETAVPVYFAVEDEALLSIYKQTQAASASQGSASAAEVLLRTATANGFQMVTSGVQSKAVSDWLIASVEGRLTGLGGEDLPTIVIVAHYDAFGVAPWLSLGADSNGSGVSVLLELARLFSRLYTYKRTHAAYNLLFFASGGGKFNYQGTKRWLEDNLDHTDSSLLQDNVAFVLCLDTVGRGSSLHLHVSKPPREGTLQHAFLRELETVAAHQFPEVRFSMVHKRINLAEDVLAWEHERFAIRRLPAFTLSHLESHRDGQRSSIMDVRSRVDSKTLTRNTRIIAEALTRVIYNLTEKGTPPDMPVFTEQMQIQQEQLDSVMDWLTNQPRAAQLVDKDSTFLSTLEHHLSRYLKDVKQHHVKADKRDPEFVFYDQLKQVMNAYRVKPAVFDLLLAVGIAAYLGMAYVAVQHFSLLYKTVQRLLVKAKTQ [NCLN] | 0.0995 | 2.71 | 3.43 | -0.129 | 53.9 | 53.7
3 | MSRRALRRLRGEQRGQEPLGPGALHFDLRDDDDAEEEGPKRELGVRRPGGAGKEGVRVNNRFELINIDDLEDDPVVNGERSGCALTDAVAPGNKGRGQRGNTESKTDGDDTETVPSEQSHASGKLRKKKKKQKNKKSSTGEASENGLEDIDRILERIEDSTGLNRPGPAPLSSRKHVLYVEHRHLNPDTELKRYFGARAILGEQRPRQRQRVYPKCTWLTTPKSTWPRYSKPGLSMRLLESKKGLSFFAFEHSEEYQQAQHKFLVAVESMEPNNIVVLLQTSPYHVDSLLQLSDACRFQEDQEMARDLVERALYSMECAFHPLFSLTSGACRLDYRRPENRSFYLALYKQMSFLEKRGCPRTALEYCKLILSLEPDEDPLCMLLLIDHLALRARNYEYLIRLFQEWEAHRNLSQLPNFAFSVPLAYFLLSQQTDLPECEQSSARQKASLLIQQALTMFPGVLLPLLESCSVRPDASVSSHRFFGPNAEISQPPALSQLVNLYLGRSHFLWKEPATMSWLEENVHEVLQAVDAGDPAVEACENRRKVLYQRAPRNIHRHVILSEIKEAVAALPPDVTTQSVMGFDPLPPSDTIYSYVRPERLSPISHGNTIALFFRSLLPNYTMEGERPEEGVAGGLNRNQGLNRLMLAVRDMMANFHLNDLEAPHEDDAEGEGEWD [TCF25] | 0.0319 | 0.666 | 0.63 | 0.0389 | 49.4 | 48.4
4 | MALPHDSNETSYLLPPNNEDWGRQTIPDFVYGQKDLMAEGIQWPRNAPGIPDALPQSPFDAALCSAWKQRVELGLFRYRLRELQTQILPGAVGFVAQLNVERGVQRRPPQTIKSVRQAFDPVQFNFNKIRPGEVLFRLHREPDLPGTLLQEDILVVINVSPLEWGHVLLVPEPARQLPQRLLPGALRAGIEAVLLSLHPGFRVGFNSLGGLASVNHLHLHGYYLAHRLPVEQAPSEPLDPGGHLHLLQDLPAPGFLFYTRGPGPDLESLISRVCRATDYLTDHEIAHNLFVTRGAPPGKTSPSSALTGVRVILWARKSSFGIKDGEAFNVALCELAGHLPVKTSQDFSSLTEAAAVALIQDCRLPPSQAEDVQAALVALMSQEEQ [GDPGP1] | 0.217 | -0.152 | -0.661 | -0.107 | 52.5 | 51
5 | MAAVVLAATRLLRGSGSWGCSRLRFGPPAYRRFSSGGAYPNIPLSSPLPGVPKPVFATVDGQEKFETKVTTLDNGLRVASQNKFGQFCTVGILINSGSRYEAKYLSGIAHFLEKLAFSSTARFDSKDEILLTLEKHGGICDCQTSRDTTMYAVSADSKGLDTVVALLADVVLQPRLTDEEVEMTRMAVQFELEDLNLRPDPEPLLTEMIHEAAYRENTVGLHRFCPTENVAKINREVLHSYLRNYYTPDRMVLAGVGVEHEHLVDCARKYLLGVQPAWGSAEAVDIDRSVAQYTGGIAKLERDMSNVSLGPTPIPELTHIMVGLESCSFLEEDFIPFAVLNMMMGGGGSFSAGGPGKGMFSRLYLNVLNRHHWMYNATSYHHSYEDTGLLCIHASADPRQVREMVEIITKEFILMGGTVDTVELERAKTQLTSMLMMNLESRPVIFEDVGRQVLATRSRKLPHELCTLIRNVKPEDVKRVASKMLRGKPAVAALGDLTDLPTYEHIQTALSSKDGRLPRTYRLFR [PMPCA] | -0.0271 | 0.057 | -1.17 | -0.174 | 52.2 | 51.8
6 | MEKSSSCESLGSQPAAARPPSVDSLSSASTSHSENSVHTKSASVVSSDSISTSADNFSPDLRVLRESNKLAEMEEPPLLPGENIKDMAKDVTYICPFTGAVRGTLTVTNYRLYFKSMERDPPFVLDASLGVINRVEKIGGASSRGENSYGLETVCKDIRNLRFAHKPEGRTRRSIFENLMKYAFPVSNNLPLFAFEYKEVFPENGWKLYDPLLEYRRQGIPNESWRITKINERYELCDTYPALLVVPANIPDEELKRVASFRSRGRIPVLSWIHPESQATITRCSQPMVGVSGKRSKEDEKYLQAIMDSNAQSHKIFIFDARPSVNAVANKAKGGGYESEDAYQNAELVFLDIHNIHVMRESLRKLKEIVYPNIEETHWLSNLESTHWLEHIKLILAGALRIADKVESGKTSVVVHCSDGWDRTAQLTSLAMLMLDGYYRTIRGFEVLVEKEWLSFGHRFQLRVGHGDKNHADADRSPVFLQFIDCVWQMTRQFPTAFEFNEYFLITILDHLYSCLFGTFLCNSEQQRGKENLPKRTVSLWSYINSQLEDFTNPLYGSYSNHVLYPVASMRHLELWVGYYIRWNPRMKPQEPIHNRYKELLAKRAELQKKVEELQREISNRSTSSSERASSPAQCVTPVQTVV [MTMR2] | 0.0322 | -1.45 | -1.51 | -0.12 | 53.4 | 53

From the supplement of paper PMC5998384
